From US20240108693A1, “METHOD OF TREATING LOWER URINARY TRACT SYMPTOMS” (Versameb AG, priority 2021, published 2024)
Entries after “also recorded” stand apart in the source; their conditions may differ.

B1: Cpd.1A: mRNA encoding human BDNF signal peptide, IGF1 pro-domain and mature human IGF1 (SEQ ID NO: 8), from pMA-T vector, N1-methylpseudouridine modified (nucleic acid)
DNA: AUGACCAUCCUGUUUCUGACAAUGGUCAUCAGCUACUUCGGCUGCAUGAAGGCCGUGAAGAUGCACACCAUGAGCAGCAGCCACCUGUUCUAUCUGGCCCUGUGCCUGCUGACCUUUACCAGCUCUGCUACCGCCGGACCUGAGACACUUUGUGGCGCUGAACUGGUGGACGCCCUGCAGUUUGUGUGUGGCGACAGAGGCUUCUACUUCAACAAGCCCACAGGCUACGGCAGCAGCUCUAGAAGGGCUCCUCAGACCGGAAUCGUGGACGAGUGCUGCUUCAGAAGCUGCGACCUGCGGCGGCUGGAAAUGUAUUGUGCCCCUCUGAAGCCUGCCAAGAGCGCCUAA
modifications: mRNA, N1-methylpseudouridine modified; misc_feature 1..348 RNA sequence of Cpd.1A and Cpd.1B; misc_feature 1..348 m1f (uridine is 1-methylpseudouridine)
B2: Cpd.1B: mRNA encoding human BDNF signal peptide, pro-IGF1 and mature IGF1 without E-peptide, 120 bp poly-A tail, from pMK vector (nucleic acid)
chain: AUGACCAUCCUGUUUCUGACAAUGGUCAUCAGCUACUUCGGCUGCAUGAAGGCCGUGAAGAUGCACACCAUGAGCAGCAGCCACCUGUUCUAUCUGGCCCUGUGCCUGCUGACCUUUACCAGCUCUGCUACCGCCGGACCUGAGACACUUUGUGGCGCUGAACUGGUGGACGCCCUGCAGUUUGUGUGUGGCGACAGAGGCUUCUACUUCAACAAGCCCACAGGCUACGGCAGCAGCUCUAGAAGGGCUCCUCAGACCGGAAUCGUGGACGAGUGCUGCUUCAGAAGCUGCGACCUGCGGCGGCUGGAAAUGUAUUGUGCCCCUCUGAAGCCUGCCAAGAGCGCCUAA
modifications: 1-methylpseudouridine; poly-A tail; misc_feature 1..348 RNA sequence of Cpd.1A and Cpd.1B; misc_feature 1..348 m1f (uridine is 1-methylpseudouridine)
notes: mRNA encoding human BDNF signal peptide, pro-IGF1 and mature IGF1 without E-peptide, 120 bp poly-A tail, from pMK vector

What was measured:
[1] = test system: vaginal distension (VD) animal model of stress urinary incontinence (SUI); experiment: Leak point pressure (LPP) in rat vaginal distension model for stress urinary incontinence; format: in vivo; settings: for area under curve (AUC) of urinary bladder leak point pressure: Day 0-14 after VD; for time course of leak point pressure (LPP): Day 4, 9 and 14 after VD; for leak point pressure (LPP) of urinary bladder: Cpd.1B single urethral injection Day 0, Duloxetine 20 mg/kg oral daily
From the text: The urethra is a conduit for elimination of urine from the bladder. It is composed of an epithelium lining the lumen, lamina propria with a prominent vascular plexus, smooth muscle and an outer layer of striated muscle (called external urethral sphincter). The urethra functions in coordination with the bladder: it remains closed during bladder filling to maintain continence and it relaxes during voiding to allow flow of urine. These processes are controlled by parasympathetic, sympathetic and somatic innervation. Parasympathetic nerves release nitric oxide to relax the urethra during bladder voiding, while sympathetic nerves release noradrenaline to contract the urethra during bladder filling. The striated muscle receives somatic innervation that contracts the muscle ensuring continence during bladder filling. Using the model of stress urinary incontinence (SUI) in female rats the hypothesis was tested if Cpd.1B can be effective against SUI in the vaginal distension (VD) model by facilitating muscle growth and regeneration. […] Vaginal Distension (VD) was applied for 4 hours to female Sprague-Dawley Female rats under isoflurane anesthesia. 1 hour after the end of VD, the abdomen was surgically opened to access the urethra and rats received two injections of vehicle or Cpd.1B (10 μg each) through a Hamilton syringe at approximately 5 and 7 o'clock positions. Sham treated animals (catheter without inflation) were treated with vehicle as controls. […] Rats were then put in a supine position on a heated pad at 37° C. The bladder was emptied manually and filled with room temperature saline through the bladder catheter at 3.0 ml/h. After bladder filling with 0.4-0.5 ml, the abdomen was slowly depressed manually to increase abdominal pressure until fluid leakage was observed from the urethral orifice.

[2] = test system: vaginal distension (VD) animal model of stress urinary incontinence (SUI); experiment: Histological assessment of urethral integrity after vaginal distension (Masson trichrome scores); format: in vivo, rat; settings: mid-urethra cross-sections, Day 9 and 14 after VD
Procedure: Vaginal Distension (VD) was applied for 4 hours to female Sprague-Dawley Female rats under isoflurane anesthesia. 1 hour after the end of VD, the abdomen was surgically opened to access the urethra and rats received two injections of vehicle or Cpd.1B (10 μg each) through a Hamilton syringe at approximately 5 and 7 o'clock positions. Sham treated animals (catheter without inflation) were treated with vehicle as controls. […] From 2 animals of each group, the urethra-vaginal tissues were harvested (cross-section of the mid-urethra and anterior vagina) on Day 9 and 14, and the tissues immersed in neutral buffered formalin containing 4% formaldehyde for a period of 4 h, then embedded in paraffin. Sections of 5 μm were stained with the standard procedures of Hemalun-Eosin (HE), Masson Trichrome (MT) and Picrosirius red. Based on morphology and tissue integrity, histology scores were allocated to the outer circular muscle layer (OCML), the inner longitudinal muscle layer (ILML) and the endomysial tissue of mid-urethral sections, and Day 9 and 14 sampled. The following histological scores were applied to the different layers and averaged per group: • Outer Circular Muscle Layer (OCML, skeletal muscle): • 0=circumferential regular • 1=circumferential focally thinned • 2=discontinued • 3=mostly absent • Inner Longitudinal Muscle Layer (ILML, smooth muscle): • 0=mid-sized to large fascicles • 1=small fascicles) • Endomysial tissue: • 0=thin, dense • 1=thickening by loose connective tissue • 2=focal replacement of muscles by connective tissue • 3=replacement of muscles by connective tissue

[3] = rat, in vivo
Procedure: (§1) For assessment of Cpd.1A exposure in rat tibialis anterior (TA) muscle, two injections of each 15 μl Cpd.1A at different doses (1, 3 or 10 μg per injection) into TA muscles of male or female rats were performed in adult rats. After 6, 24, 48 and 72 hours, TA muscles were harvested, divided into two parts to analyse RNA and protein content, and Cpd.1A RNA content was analysed by qPCR and IGF1 protein levels by human-specific IGF1 ELISA (Cat. #E20, Mediagnost, Reutlingen, Germany). Total RNA was extracted from flash frozen TA muscle tissues (ca. 10 mg) using Norgen's Animal Tissue RNA Purification Kit (Cat. #25700). A TaqMan assay was developed and validated to quantify Cpd.1A and Cpd.1B RNA from muscle tissues through absolute quantification. Both forward primer (5′ […] 3′; SEQ ID NO: 14) and reverse primer (5′ […] 3′; SEQ ID NO: 15) along with labelled probe with quencher (5′ FAM-CTGCTGCCGTAGCCTG-MGB-Q500 3′; SEQ ID NO: 16) were designed to be specifically bind to Cpd.1A and Cpd.1B RNA and ordered (www.microsynth.com). […] The Cpd.1A RNA copy numbers in TA muscles were assessed by calculating unknown values from standard curves. From qPCR data, half-life was calculated using a monoexponential decay function. […] After 24 and 72 hours, tissues were harvested, and Cpd.1B content was analysed by qPCR as specified above where standard curve template generated from Cpd.1B mRNA.

[4] = test system: IGF1 protein; experiment: IGF1 protein expression in rat TA muscle after i.m. injection of Cpd.1A (human-specific IGF1 ELISA); format: in vivo; settings: 3 and 10 μg doses i.m., after a delay of several hours
Procedure: as §1

Molecule	area under curve (AUC) of urinary bladder leak point pressure [1]	time course of leak point pressure (LPP) [1]	leak point pressure (LPP) of urinary bladder ([1]; Day 4 after VD, vs. VD vehicle)	leak point pressure (LPP) of urinary bladder ([1]; Day 14 after VD)	endomysial tissue histology score [2]	inner longitudinal muscle layer (ILML) histology score [2]	outer circular muscle layer (OCML) histology score [2]	endomysial tissue histology score ([2]; listed as duloxetine)	inner longitudinal muscle layer (ILML) histology score ([2]; listed as duloxetine)	outer circular muscle layer (OCML) histology score ([2]; listed as duloxetine)	duration of relevant Cpd.1A exposure in TA muscle [3]	half-life of Cpd.1A in TA muscle ([3]; im, 3 ug)	duration of IGF1 protein production at relevant concentrations in TA muscle [4]	leak point pressure (LPP) of urinary bladder ([1]; Day 9 after VD)
CNCC[C@H](Oc1cccc2ccccc12)c1cccs1 [Duloxetine, reference compound]	clear increase in AUC; also recorded: beneficial efficacy	initial increase in LPP that declined thereafter to normal levels on Day 14	initial increase of LPP; also recorded: significant increase of LPP; also recorded: increased LPP	control levels	further worsened this pathology	further increased the ILML score	further deteriorated the OCML pathology	worsens the endomysium score	worsens the ILML score	tends to worsen the OCML disorganization	–	–	–	–
B1	–	–	–	–	–	–	–	–	–	–	up to 72 hours	21 h	up to 72 hours	–
B2	clear increase in AUC; also recorded: beneficial efficacy	increase of LPP over time that returned to normal levels by Day 14	significant increase in LPP; also recorded: significant increase of LPP; also recorded: increased LPP	full recovery to healthy LPP levels	completely prevented this impairment; also recorded: reverted	preventing this disruption; also recorded: reverted	prevented this trend; also recorded: reverted	–	–	–	–	–	–	further increased; also recorded: did not reach significance; also recorded: still showed increased LPP
